The supplement of paper PMC7877785
± gives the uncertainty stated by the source.

Experiment: self-splicing fitness, log relative to wild type (ln ratio); higher = more splicing; Tetrahymena group I intron in knt gene, E. coli kanamycin selection, DiMSum; sequences stand for … in CUCUCU…GGAGGGAAAAGUUAUCAGGCAUGCACCUGGUAGCUAGUCUUUAAACCAAUAGAUUGCAUCGGUUUAAAAGGCAAGACCGUCAAAUUGCGGGAAAGGGGUCAACAGCCGUUCAGUACCAAGUCUCAGGGGAAACUUUGAGAUGGCCUUGCAAAGGGUAUGGUAAUAAGCUGACGGACAUGGUCCUAACCACGCAGCCAAGUCCUAAGUCAACAGAUCUUCUGUUGAUAUGGAUGCAGUUCACAGACUAAAUGUCGGUCGGGGAAGAUGUAUUCUUCUCAUAAGAUAUAGUCGGACCUCUCCUUAAUGGGAGCUAGCGGAUGAAGUGAUGCAACACUGGAGCCGCUGGGAACUAAUUUGUAUGCGAAAGUAUAUUGAUUAGUUUUGGAGUACUCGUGGUCG
Procedure, shortened: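 A randomised library covering all eight P1ex-region intron nucleotides was built with the intron in the knt kanamycin-resistance gene on pET-22b(+) and held in E. coli BL21(DE3). Cells were grown overnight at 37°C or 30°C on LB agar, with or without 25 μg/mL kanamycin, plus 100 μg/mL carbenicillin, 50 μM IPTG and 0.2% rhamnose, and pooled colonies were amplicon-sequenced on an Illumina HiSeq 2500. DiMSum fitness is the error-weighted combination of wild-type-normalised replicate fold changes, kanamycin versus none.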

| Sequence | self-splicing fitness (ln) (30 °C) | self-splicing fitness (ln) (37 °C) |
| --- | --- | --- |
| AUGUAGCAAUAUUACGUAUC | -4.2 ± 0.42 | -2.58 ± 0.3 |
| GAGAAGCAAUAUUACGCAUC | -3.12 ± 0.43 | -2.6 ± 0.35 |
| AGCUAGCAAUAUUACGACCG | -1.53 ± 0.1 | -1.06 ± 0.13 |
| AACCAGCAAUAUUACGAGAU | -1.96 ± 0.078 | -0.239 ± 0.083 |
| GGCAAGCAAUAUUACGAUGU | -2.19 ± 0.12 | -1.44 ± 0.13 |
| CAGUAGCAAUAUUACGCGGC | -2.92 ± 0.32 | -2.14 ± 0.5 |
| GCUAAGCAAUAUUACGUAGG | -1.34 ± 0.059 | -0.249 ± 0.087 |
| GUAAAGCAAUAUUACGACUU | 0.245 ± 0.1 | 0.464 ± 0.12 |
| AAGUAGCAAUAUUACGGAUA | -2.1 ± 0.17 | -1.66 ± 0.16 |
| ACCAAGCAAUAUUACGUGAU | -2.46 ± 0.072 | -0.924 ± 0.074 |
| CGUUAGCAAUAUUACGUAGG | -0.104 ± 0.093 | -0.845 ± 0.14 |
| CUCUAGCAAUAUUACGCUCU | -3.22 ± 0.19 | -3.77 ± 0.31 |
| CGCAAGCAAUAUUACGCACC | -1.54 ± 0.29 | -0.0713 ± 0.4 |
| AUAUAGCAAUAUUACGAAUA | -1.36 ± 0.32 |  |
| UCUAAGCAAUAUUACGUUCA | -2.37 ± 0.17 | -1.56 ± 0.15 |
| GUUCAGCAAUAUUACGGUUA | -0.817 ± 0.098 | -0.352 ± 0.082 |
| UCCGAGCAAUAUUACGCCAG | -3.95 ± 0.28 | -2.24 ± 0.31 |
| CCAGAGCAAUAUUACGGAAU | -3.42 ± 0.26 | -2.52 ± 0.17 |
| AUGAAGCAAUAUUACGAGUG | -1.22 ± 0.056 | -0.514 ± 0.081 |
| UUACAGCAAUAUUACGAAUA | -2.6 ± 0.3 | -1.03 ± 0.2 |

| Sequence | self-splicing fitness (ln) (30 °C) | self-splicing fitness (ln) (37 °C) |
| --- | --- | --- |
| GCAAAGCAAUAUUACGGUUC | -2.17 ± 0.089 | -0.948 ± 0.11 |
| AGGAAGCAAUAUUACGGGUG | -2.14 ± 0.091 | -1.98 ± 0.11 |
| CCCUAGCAAUAUUACGUUCG | -3.63 ± 0.27 | -2.64 ± 0.33 |
| UCGAAGCAAUAUUACGCCAA | -2.4 ± 0.27 | -2.2 ± 0.37 |
| CUCGAGCAAUAUUACGAAUG | -1.91 ± 0.14 | -1.15 ± 0.17 |
| GAUGAGCAAUAUUACGCUAU | -2 ± 0.38 |  |
| GAAUAGCAAUAUUACGCGCG | -0.825 ± 0.1 | -0.591 ± 0.13 |
| UGGCAGCAAUAUUACGACUA | 0.138 ± 0.07 | 0.38 ± 0.1 |
| GAUAAGCAAUAUUACGAAAU | -1.13 ± 0.13 | -1.11 ± 0.15 |
| CUUGAGCAAUAUUACGAACG | -0.921 ± 0.13 | 0.12 ± 0.18 |
| UCUGAGCAAUAUUACGUGAG | -1.86 ± 0.11 | -0.646 ± 0.097 |
| GACCAGCAAUAUUACGAUAG | -1.73 ± 0.074 | -1.45 ± 0.11 |
| GUUCAGCAAUAUUACGGGCC | -3.61 ± 0.2 | -2.25 ± 0.2 |
| AAUUAGCAAUAUUACGGGGC | -2.38 ± 0.21 |  |
| GAAGAGCAAUAUUACGCUAG | -4.24 ± 0.37 | -1.13 ± 0.21 |
| AACCAGCAAUAUUACGGAGA | -1.62 ± 0.086 | -1.5 ± 0.084 |
| GUCAAGCAAUAUUACGCACA | -1.21 ± 0.12 | -0.776 ± 0.13 |
| GGCUAGCAAUAUUACGCUGC | -3.21 ± 0.19 | -2.65 ± 0.19 |
| CGCAAGCAAUAUUACGCAGU | -3.23 ± 0.17 | -2.62 ± 0.21 |
